Test: label from the status in PepcDB records
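Further: failed if final PepcDB status was selected cloned or expressed and not failed if soluble or beyond.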

| Sequence | protein production |
| --- | --- |
| MTDYASLLMSLTSGSALDSGCMEQLIQEGLYVTPALFSVDRAALWVLDKDEQAYLCEADFFDGMIDHRSSQRLTKKEDAELFSFLESTSEIIINNYFTYESFGLNTSRILSRFQLCSLLLIPLQIKGENRGFIFLGDSQKNIEWSPDVLFASRILVQLFERALLALDNSVAETKLQHQYQLMSEIEKLAK | failed |
| MKRTIFLLMSILLLLTACGDGHKQTSSDKEQSEHKDNHNKNQVKQIATDKKVQGDNYRTILPFKESQARGLLQDNMANGYNGEDFESGLLELSKEIFPTNKYLYQDGQYLDKKTINAYLDPKYTKKEIDKMSEKEKKSKNANENLGLNPSHNGETDEEKIAKNSPAYLSNILEQDFYGNSDSKGKNIKGMTIGLAMNSVYYYKKEKDGETFSKDLSDKEIEKQGKQMASEMLSRLRENSDLKDIPIHFAIYKQSSQDSITPGEFIVGTTVEEGKTKINSWDNINEKAALIPSSTAADYDETLNNNFKQFNDNLQSYFSNFTQAVGKVKFVNKKAKQLTVDLPIDYYGQAETIGITQYVTEQAEKYFDKLDEYEIRIKDGNTPRALISKTKDDKEPQVHIYHN | failed |
| QAAPSQVVVIRQERAGQTSVSLLWQEPEQPNGIILEYEIKYYEKDKEMQSYSTLKAVTTRATVSGLKPGTRYVFQVRARTSAGCGRFSQAMEVETGKP | not failed |
| MTGHIDPTKEVFAQFRANDREGPIHMLNLVRLRPRAAYPDGRETTGAEAYAAYGRDSGPVFERLGGKVVWQGQFELMLIGPQDEHWDHVFIAEYPSVAAFVEMIRDPVYREAVKHRQAAVEDSRLIRLKPLKPGKGFGEIPT | not failed |
| PITFWYGKYIILIPSSYFKSVIDKRLKYIILHEYAHAKNRDTLHLIIFNIFSIIMSYNPLVHIVKRKIIHDNEVEADRFVLNNINKNEFKTYAESIM | failed |
| TISSGVPPELPGPPTNLGISNIGPRSVTLQFRPGYDGKTSISRWLVEAQVGVVGEGEEWLLIHQLSNEPDARSMEVPDLNPFTCYSFRMRQVNIVGTSPPSQPSRKIQTLQ | not failed |
| MYKLSLVIKSLIIALLTTSLLSAGFQLRGDYLLDDDLQTLYVSSSDIHGELTRLVKLNLTRNQVNVLKHSKADVPELRILSDKLDRRTLSLFSNGQVAEYELIYSVHYQVRFTGEDARDFRFELYRDYQDDPNIALAKSRELSLLLSEMRTSAADKILRDLARIQRLEHHHHHH | failed |
| MDISGHPKTRTRTIFDEVDEPVWFCCVLPIWVGEEMASGWGITGNKGRCYDFWMDFSECMSHCREPKDCTLLREDYLECLHHSKEFQRRNRIYKEEQRKLRAASRKGEEAGDGTHNHH | failed |
| MITFEKVTVENENVVKEMFRSHSLSEKQVQYCVKVDDTYIGVIDYRVQGETAILSQLIIHFDYQSYGYGTNTYFTFEMMMKERNVKEIKVLQTELTEPVKSFIESFGFNVEDG | failed |
| MTTETIQSNANLAPLPPHVPEHLVFDFDMYNPSNLSAGVQEAWAVLQESNVPDLVWTRCNGGHWIATRGQLIREAYEDYRHFSSECPFIPREAGEAYDFIPTSMDPPEQRQFRALANQVVGMPVVDKLENRIQELACSLIESLRPQGQCNFTEDYAEPFPIRIFMLLAGLPEEDIPHLKYLTDQMTRPDGSMTFAEAKEALYDYLIPIIEQRRQKPGTDAISIVANGQVNGRPITSDEAKRMCGLLLVGGLDTVVNFLSFSMEFLAKSPEHRQELIERPERIPAACEELLRRFSLVADGRILTSDYEFHGVQLKKGDQILLPQMLSGLDERENACPMHVDFSRQKVSHTTFGHGSHLCLGQHLARREIIVTLKEWLTRIPDFSIAPGAQIQHKSGIVSGVQALPLVWDPATTKAV | not failed |
| AIGMALVGTEGQWLQVNKSLSHFLGYSQDELRTMTFQQLTWPEDLNNDLEQLNMLVRGDINSYSMEKRYYTRNGDVVWALLAVSLVRHKDNKPLYFIAQIEDINDLKQSEQENQRLMERITQANDALFQEKERLHITLDSIG | failed |
| MNFEAIKSIYLFEMARTRRTLLQSVVSPVISTSLYFIVFGTAIGSRIQEVGGVSYGAFITPGLIMLTLLTQCISNGSFGIYFPKFTGTVYEILSAPVSMTEIVAGYVGAAATKGLMIGTIILITASFFVDITIAHPFMMVLFFVLTAVSFSLFGFIIGIWATNFEQLNLIPMLVVPPLTFLGGSFYSIDMLPPFWQTVSHFNPVLYLISGFRWSFYEIADVNPVISLAMITLFLAVCLGVVAWMFKTGYRLRN | failed |
| MITVVIASRLREDRLDYLTAMHASLTRQSVPWEAVIALDGASPDRLPRQLAQDPRVDTLVLPRPVGAACARNLALTQVRTRYVNWADDDDEFTDDAMSVRLETLESTGVGWCAGWSEDQFRDGSTRLWRCPTPPGRHEAGDVWTFWKSPADTIPIGPTTILARTDLVRAAPMGGLVQGEDYCAALGVTALAPGILLPLPVYRYRKWGGQMTAQDGYDQLETAAREHAWAYGRSLRAVLRGGEDLVHVLEHHHHHH | failed |
| MAQINFEGLRELHDCVNYLLHHCPKTRESLSQQGQEKWTEQVSEASLRMLDICNVSKDVMTLVKHSLQDLQLTLRGNESSDVNEKIAAYNRYKNKLKKETLKCLNCLKNMKGNEGRVAMPIEQNLLFVTEVLKEVRRVVVTMVESLFSLGCIPWLEKRSSKGSLSSIFSIRSSYLLDDEWDETAVQSATTRLEAAEITVVELEIELESIFRRLIQTRVSLLNILTN | failed |
| MSMESKSKRRSPPSSTLEEEVPGKTIHPEDPKITSKNFENPTKETSIQSPIKNSIKPSWNPEPKITRTSIWDIESAGGDSIQNDCQSECNVEDQGHEQEVTLETRIFSGTSDRIEPHRHYGVYLLRNRFDAIQLLTRNTSSSADDYGERRVISEYREMRCEFRVWSPFQSKLAAGIMGGVSDLHLQIGSKVLYLGAGFGRSVSHISDIVGDSGMVYAVEQIPWAGRQLTIMANRRSNIVPIVEDATMPYKYRYEVPACIDIIFADLPPSVLIRALMLNARHFLNPGGHFVAYLHSPTSQGVVFNKDSFAAERRLLKEKQLEPKEMVLLEPFKAGYAFVVGVYIRKDVSL | failed |
| MQVITSVKEAKQIVKDWKSHQLSIGYVPTMGFLHDGHLSLVKHAKTQDKVIVSIFVNPMQFGPNEDFSSYPRDLERDIKMCQDNGVDMVFIPDATQMYLKNFSTYVDMNTITDKLCGAKRPGHFRGVCTVLTKFFNILNPDIVYMGQKDAQQCVVVRHMVDDLNFDLKIQICPIIREEDGLAKSSRNVYLSKEERKASLAISQSIFLAEKLVREGEKNTSKIIQAMKDILEKEKLIKIDYIELVDFNTMENIENITDNVLGAVAAFVGKTRLIDNFLVQGLK | not failed |
| MKKSSILVFLLTYGLFYVSSILFPIDRMWYDALEKPSWTPSGMTIGIVWTVLYGLIALSVAIIYNKYGCKPKTFWFIFLLNYMCNQAFSYFQFSQKDLFLATIDCLLVAVTTLLLIAVSSSLSKVSTWLLIPYFLWATFATYLSWSIYSIN | failed |
| MHTLVFLSTRQVLQCQPAACQALPLLPRELFPLLFKVAFMDKKTVVLRELVHTWPFPLLSFQQLLQECAHCSRALLQERPSTESMQAVILGLTARLHTSEPGASTQPLCRKHALRVLDMTGLLDDGVEQDPGTMSMWDCTAAVARTCIAQQQGGAAEPGPAPIPVEVRVDLRVNRASYAFLREALRSSVGSPLRLCCRDLRAEDLPMRNTVALLQLLDAGCLRRVDLRFNNLGLRGLSVIIPHVARFQHLASLRLHYVHGDSRQPSVDGEDNFRYFLAQMGRFTCLRELSMGSSLLSGRLDQLLSTLQSPLESLELAFCALLPEDLRFLARSPHAAHLKKLDLSGNDLSGSQLAPFQGLLQASAATLLHLELTECQLADTQLLATLPILTQCASLRYLGLYGNPLSMAGLKELLRDSVAQAELRTVVHPFPVDCYEGLPWPPPASVLLEASINEEKFARVEAELHQLLLASGRAHVLWTTDIYGRLAADYFSL | failed |
| DLAPSRVESLTLIMTSSGAQGLPMPNAALLQLLARRGAPDREVALEQQADLLAALGSPQVKDDREQLLHQAAVSYDRAFNPEGVKRQIMAILAEPSRVELLNRLRLPVLVVHGTADPLLPVMHGVHVAAHIQGSQLRLIPGLAHRFQEAFKAPLLGAVLPYLKA | failed |
| MPALDLIRPSVTAMRVIASVNAEFARELKLPPHIRSLGLISADSDDVTYIAADEATKQAMVEVVYGRSLYAGAAHGPSPTAGEVLIMLGGPNPAEVRAGLDAMVANIENGAAFQWANDAENTAFLAHVVSRTGSYLSSTAGITLGDPMAYLVAPPLEATYGIDAALKSADVQLVTYVPPPSETNYSAAFLTGSQAACKAACNAFTDAVLEIARNPIQRA | not failed |
